# Test results: the supplement of paper PMC10567573
# B1: CAMK2D (parent)
# chain: LLKHPNIVRLHDSISEEGFHYLVF
# Variants of: B1
# Experiment: protein stability index of a GFP-peptide fusion (GPS, HEK-293T) (PSI 1-6); higher = more stable
# Details: c terminus: a fixed tail appended
# 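Also: lentivirally expressed fusions sorted by FACS into six bins by GFP to DsRed ratio, PSI derived from sequencing read proportions per bin multiplied by bin number.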
row,Variant,protein stability index
1,LLKHPSIVRLHDSISEEGFHYLVF,1.39
2,LLKHPEIVRLHDSISEEGFHYLVF,3.7
3,LLKHPWIVRLHDSISEEGFHYLVF,2.75
4,LLKHPRIVRLHDSISEEGFHYLVF,2.54
5,LLKHPDIVRLHDSISEEGFHYLVF,1.76
6,LLKHPIIVRLHDSISEEGFHYLVF,1.94
7,LLKHPKIVRLHDSISEEGFHYLVF,2.36
8,LLKHPCIVRLHDSISEEGFHYLVF,2.13
9,LLKHPFIVRLHDSISEEGFHYLVF,2.94
10,LLKHPVIVRLHDSISEEGFHYLVF,3.01
11,LLKHPLIVRLHDSISEEGFHYLVF,3.32
12,LLKHPTIVRLHDSISEEGFHYLVF,3.24
13,LLKHPPIVRLHDSISEEGFHYLVF,2.15
14,LLKHPAIVRLHDSISEEGFHYLVF,2.22
15,LLKHPHIVRLHDSISEEGFHYLVF,2.18
16,LLKHPQIVRLHDSISEEGFHYLVF,3.46
17,LLKHPYIVRLHDSISEEGFHYLVF,3.11
18,LLVHPNIVRLHDSISEEGFHYLVF,1.78
19,LLTHPNIVRLHDSISEEGFHYLVF,1.52
20,LLYHPNIVRLHDSISEEGFHYLVF,3
21,LLWHPNIVRLHDSISEEGFHYLVF,2.83
22,LLSHPNIVRLHDSISEEGFHYLVF,1.79
23,LLKVPNIVRLHDSISEEGFHYLVF,1.58
24,LLKSPNIVRLHDSISEEGFHYLVF,1.94

row,Variant,protein stability index
1,LLKGPNIVRLHDSISEEGFHYLVF,2.23
2,LLKMPNIVRLHDSISEEGFHYLVF,3.37
3,LLKCPNIVRLHDSISEEGFHYLVF,1.66
4,LLKKPNIVRLHDSISEEGFHYLVF,3.21
5,LLKIPNIVRLHDSISEEGFHYLVF,2.28
6,LLKYPNIVRLHDSISEEGFHYLVF,2.32
7,LLKEPNIVRLHDSISEEGFHYLVF,2.6
8,LLKPPNIVRLHDSISEEGFHYLVF,1.67
9,LLKDPNIVRLHDSISEEGFHYLVF,1.77
10,LLKFPNIVRLHDSISEEGFHYLVF,1.88
11,LLKQPNIVRLHDSISEEGFHYLVF,1.06
12,LLKTPNIVRLHDSISEEGFHYLVF,1.84
13,LLKRPNIVRLHDSISEEGFHYLVF,2.6
14,LLKAPNIVRLHDSISEEGFHYLVF,3.37
15,LLKWPNIVRLHDSISEEGFHYLVF,1.44
16,LLKLPNIVRLHDSISEEGFHYLVF,2.79
17,LLKHPNDVRLHDSISEEGFHYLVF,1.99
18,LLKHPNLVRLHDSISEEGFHYLVF,2.98
19,LLKHPNPVRLHDSISEEGFHYLVF,1.76
20,LLKHPNSVRLHDSISEEGFHYLVF,1.89
21,LLKHPNTVRLHDSISEEGFHYLVF,2.19
22,LLKHPNMVRLHDSISEEGFHYLVF,3.55
23,LLKHPNNVRLHDSISEEGFHYLVF,3.17
24,LLKHPNAVRLHDSISEEGFHYLVF,1.95

row,Variant,protein stability index
1,LLKHPNRVRLHDSISEEGFHYLVF,2.02
2,LLKHPNHVRLHDSISEEGFHYLVF,3.65
3,LLKHPNQVRLHDSISEEGFHYLVF,2.14
4,LLKHPNCVRLHDSISEEGFHYLVF,3.93
5,LLKHPNFVRLHDSISEEGFHYLVF,2.39
6,LLKHPNEVRLHDSISEEGFHYLVF,2.67
7,LLKHPNKVRLHDSISEEGFHYLVF,1.56
8,LLKHPNWVRLHDSISEEGFHYLVF,1.07
9,LLKHPNIWRLHDSISEEGFHYLVF,3.27
10,LLKHPNIARLHDSISEEGFHYLVF,2.64
11,LLKHPNIPRLHDSISEEGFHYLVF,2.01
12,LLKHPNIMRLHDSISEEGFHYLVF,2.59
13,LLKHPNIIRLHDSISEEGFHYLVF,1.87
14,LLKHPNIYRLHDSISEEGFHYLVF,2.91
15,LLKHPNILRLHDSISEEGFHYLVF,2.21
16,LLKHPNIDRLHDSISEEGFHYLVF,2.41
17,LLKHPNIFRLHDSISEEGFHYLVF,1.47
18,LLKHPNIERLHDSISEEGFHYLVF,2.17
19,LLKHPNIHRLHDSISEEGFHYLVF,1.8
20,LLKHPNIKRLHDSISEEGFHYLVF,2.05
21,LLKHPNIQRLHDSISEEGFHYLVF,1.94
22,LLKHPNIRRLHDSISEEGFHYLVF,1.81
23,LLKHPNIGRLHDSISEEGFHYLVF,2.79
24,LLKHFNIVRLHDSISEEGFHYLVF,2.26

row,Variant,protein stability index
1,LLKHNNIVRLHDSISEEGFHYLVF,2.58
2,LLKHHNIVRLHDSISEEGFHYLVF,2.4
3,LLKHANIVRLHDSISEEGFHYLVF,2.2
4,LLKHQNIVRLHDSISEEGFHYLVF,2.6
5,LLKHMNIVRLHDSISEEGFHYLVF,1.72
6,LLKHLNIVRLHDSISEEGFHYLVF,3.34
7,LLKHDNIVRLHDSISEEGFHYLVF,1.97
8,LLKHWNIVRLHDSISEEGFHYLVF,2.57
9,LLKHTNIVRLHDSISEEGFHYLVF,2.59
10,LLKHCNIVRLHDSISEEGFHYLVF,2.29
11,LLKHKNIVRLHDSISEEGFHYLVF,2.42
12,LLKHGNIVRLHDSISEEGFHYLVF,1.76
13,LLKHINIVRLHDSISEEGFHYLVF,3.47
14,LLKHSNIVRLHDSISEEGFHYLVF,2.59
15,LLKHYNIVRLHDSISEEGFHYLVF,1.57
16,LLKHVNIVRLHDSISEEGFHYLVF,2.56
17,LLKHPNIVDLHDSISEEGFHYLVF,3.18
18,LLKHPNIVGLHDSISEEGFHYLVF,1.79
19,LLKHPNIVCLHDSISEEGFHYLVF,3.88
20,LLKHPNIVELHDSISEEGFHYLVF,3.23
21,LLKHPNIVFLHDSISEEGFHYLVF,1.26
22,LLKHPNIVALHDSISEEGFHYLVF,2.1
